According to patent US20220267440A1 (ABSOS, published 2022):
One block for each binder: values may come before it.

Key:
[1] = target: T1, recombinant CD47-Fc (Sino Biologics) (human, UniProt Q08722 19-139); assay: competition ELISA: HIS-tagged SIRP α binding to plate-bound CD47-Fc, antibody titrated
T1 construct: Bought reagent; also called human CD47-Fc; not shown: Fc

[2] = target: T2, recombinant human CD47 (Novoprotein cat no. C321, lot no. 0329689) (human, UniProt Q08722 19-139); assay: SPR summary table, 25 C
T2 construct: Bought reagent
Description: (§1) Binding kinetics were measured at 25° C. using a BioRad ProteOn XPR36 optical biosensor equipped with GLM sensor chips and equilibrated with running buffer (HBS, 0.005% TWEEN-20, 0.1 mg/mL BSA, pH 7.4).
(§2) CD47 was tested in a three-fold dilution series starting at 100 nM.

[3] = target: T2, recombinant human CD47 (Novoprotein cat …); assay: SPR, antibodies binned by kd at 25 C (value is the column's head)
Description: as §1, §2

[4] = target: T2, recombinant human CD47 (Novoprotein cat …); assay: SPR (ProteOn XPR36), mAb captured on anti-mouse Fc, CD47 as analyte, 25 C, 1:1 model
Description: as §1, §2

[5] = target: T2, recombinant human CD47 (Novoprotein cat …); assay: SPR summary table, 25 C; dissociation rate constant fixed at 1e-5 s^-1; summary table; kd fixed at 1e-5
Description: (§3) Affinity was determined for five selected AlivaMab Mouse monoclonal hybridoma supernatants (Biosensor Tools, Salt Lake City, Utah). Binding kinetics were measured at 25° C. using a BioRad ProteOn XPR36 optical biosensor equipped with GLM sensor chips and equilibrated with running buffer (HBS, 0.005% TWEEN-20, 0.1 mg/mL BSA, pH 7.4).
as §2

[6] = target: T2, recombinant human CD47 (Novoprotein cat …); assay: SPR summary table, 25 C; kd fixed
Description: as §3, §2

[7] = target: T2, recombinant human CD47 (Novoprotein cat …); assay: SPR (ProteOn XPR36), mAb captured on anti-mouse Fc, CD47 as analyte, 25 C; kd fixed, KD a rough estimate
Description: as §3, §2

[8] = target: T2, recombinant human CD47 (Novoprotein cat …); assay: SPR (ProteOn XPR36), mAb captured on anti-mouse Fc, CD47 as analyte, 25 C; no decay detected, kd fixed at 1e-5 in the fit; no decay seen; kd fixed at 1e-5 in the fit
Description: as §3, §2

- IC50 [1]: 2 nM
- Kd [2]: 1 nM
- koff [2]: 0.0089 s⁻¹
- kon [2]: 8.7e+06 M⁻¹ s⁻¹
- koff [3]: ~0.01 s⁻¹
- Kd [4]: 1 nM
- koff [4]: 0.0089 s⁻¹
- kon [4]: 8.7e+06 M⁻¹ s⁻¹
B1: anti-CD47 AlivaMab antibody 151 (antibody, IgG1, V domains shown)
VH: QVQLQESGPGLVKPSETLSLTCTVSGGSISSYYWSWIRQPPGKGLEWIGYIYYSGSTNYNPSLKSRVTISVDTSKNQFSLKLSSVTAADTAVYYCARKRKYFDYWGQGTLVTVSS
VL: DIQMTQSPSSLSASVGDRVTITCRASQGISNYLAWYQQKPGKVPKLLIYAASTLQSGVPSRFSGSGSGTDFTLTISSLQPEDVATYYCQKCNSAPFTFGPGTKVDIK
notes: Chimeric AlivaMab Mouse mAb from hybridoma: human V, CH1 and upper hinge, mouse middle hinge, CH2 and CH3, human kappa light chain; also called clone 151; mAb 151

- IC50 [1]: 2.2 nM
- koff [5]: ≤ 1e-05 s⁻¹
- kon [2]: 1.18e+06 M⁻¹ s⁻¹
- Kd [6]: ~0.009 nM
- koff [3]: ≤ 1e-05 s⁻¹
- kon [4]: 1.18e+06 M⁻¹ s⁻¹
- Kd [7]: ≤ 0.0085 nM
- koff [8]: ≤ 1e-05 s⁻¹
B2: anti-CD47 AlivaMab antibody 139 (antibody, IgG1, V domains shown)
VH: QVQLQESGPGLVKPSETLSLTCTVSGGSISNYYWSWIRQPPGKGLEWIGYIYYSGSTNYNPSLKSRVTISVDTSKNQFSLKLSSVTAADTAVYYCARSRYFDLWGRGTLVTVSS
VL: DIQMTQSPSAMSASVGDRVTITCRASQGISIYLAWFQQKPGKVPKRLIYAASSLQSGVPSRFSGSGSGTEFTLTISSLQPEDFATYYCLQHTSYPYTFGQGTKLEIK
notes: Chimeric AlivaMab Mouse mAb from hybridoma: human V, CH1 and upper hinge, mouse middle hinge, CH2 and CH3, human kappa light chain
